Among the data in paper PMC5740215, “Functional characterization of a novel somatic oncogenic mutation of PIK3CB” (Signal Transduction and Targeted Therapy, 2017) are Km and Vmax values, retold here.

The term Km denotes the concentration of substrate that gives half-maximal velocity. What is called Vmax is the rate approached at saturating substrate.

Residue numbers refer to the chain shown, from its start. Names and notes keep the numbering of the source.

Substrate in this data set: Nc1ncnc2c1ncn2[C@@H]1O[C@H](COP(=O)(O)OP(=O)(O)OP(=O)(O)O)[C@@H](O)[C@H]1O
Briefly: Km [ATP] by ADP-Glo lipid kinase assay with PIP2:PS substrate. It counts as biochemical, Homo sapiens. The settings on record: MgCl2. On the technique in general: In ADP-Glo the light output rises with the ADP produced.

B1: p110β (Homo sapiens) (protein)
chain: MCFSFIMPPAMADILDIWAVDSQIASDGSIPVDFLLPTGIYIQLEVPREATISYIKQMLWKQVHNYPMFNLLMDIDSYMFACVNQTAVYEELEDETRRLCDVRPFLPVLKLVTRSCDPGEKLDSKIGVLIGKGLHEFDSLKDPEVNEFRRKMRKFSEEKILSLVGLSWMDWLKQTYPPEHEPSIPENLEDKLYGGKLIVAVHFENCQDVFSFQVSPNMNPIKVNELAIQKRLTIHGKEDEVSPYDYVLQVSGRVEYVFGDHPLIQFQYIRNCVMNRALPHFILVECCKIKKMYEQEMIAIEAAINRNSSNLPLPLPPKKTRIISHVWENNNPFQIVLVKGNKLNTEETVKVHVRAGLFHGTELLCKTIVSSEVSGKNDHIWNEPLEFDINICDLPRMARLCFAVYAVLDKVKTKKSTKTINPSKYQTIRKAGKVHYPVAWVNTMVFDFKGQLRTGDIILHSWSSFPDELEEMLNPMGTVQTNPYTENATALHVKFPENKKQPYYYPPFDKIIEKAAEIASSDSANVSSRGGKKFLPVLKEILDRDPLSQLCENEMDLIWTLRQDCREIFPQSLPKLLLSIKWNKLEDVAQLQALLQIWPKLPPREALELLDFNYPDQYVREYAVGCLRQMSDEELSQYLLQLVQVLKYEPFLDCALSRFLLERALGNRRIGQFLFWHLRSEVHIPAVSVQFGVILEAYCRGSVGHMKVLSKQVEALNKLKTLNSLIKLNAVKLNRAKGKEAMHTCLKQSAYREALSDLQSPLNPCVILSELYVEKCKYMDSKMKPLWLVYNNKVFGEDSVGVIFKNGDDLRQDMLTLQMLRLMDLLWKEAGLDLRMLPYGCLATGDRSGLIEVVSTSETIADIQLNSSNVAAAAAFNKDALLNWLKEYNSGDDLDRAIEEFTLSCAGYCVASYVLGIGDRHSDNIMVKKTGQLFHIDFGHILGNFKSKFGIKRERVPFILTYDFIHVIQQGKTGNTEKFGRFRQCCEDAYLILRRHGNLFITLFALMLTAGLPELTSVKDIQYLKDSLALGKSEEEALKQFKQKFDEALRESWTTKVNWMAHTVRKDYRS
notes: GST-His6-p110β+myc-p85α; with p85α (PIK3R1)
With B1, the Km was determined as 507.5 ± 66.3 µM and the Vmax was found to be 1.13 µmol/min/mg.

B2: p110β^E1051K (Homo sapiens; E1051K) (protein)
chain: B1 chain with E1051K
notes: as for B1
For the protein B2, the Km is 314.3 ± 36.8 µM and the Vmax came out at 1.4 µmol/min/mg.
